These results are taken from US20130203680A1, “FOLATE CONJUGATES FOR TREATING INFLAMMATION OF THE EYE” (ENDOCYTE, INC., priority 2010, published 2013).

In series [1] the test system is RAW264.7 cells. In words: XTT cell viability / proliferation of RAW264.7 cells. Format: cell-based, murine. The method, then: (§1) For XTT cell viability and TNF-α inhibition assays, RAW264.7 cells in 96-well plates were treated with vehicle (culture medium) or 10-fold serial dilutions of EC0746 without or with 100-fold excess free folate. After 2 h incubation, the drug-containing media were replaced and the cells were allowed to incubate further for 70 h. Four hours prior to the end of incubation, LPS was added to the treated cells at a final concentration of 100 ng/mL. 100 μL of the culture supernatants were collected for TNF-α analysis using a commercial ELISA kit. See FIG. 2, Panel B. The cell viability was assessed by adding XTT (2,3-bis(2-methoxy-4-nitro-5-sulfo-phenyl)-2H-tetrazolium-5-carboxanilide) to the remaining medium for an additional 4 h following the manufacturer's instructions (Roche Applied Science, Indianapolis, Ind.) See FIG. 2, Panel A. Both results were expressed as % absorbance (minus background) relative to untreated control in triplicates.
(§2) RAW264.7 cells in 96-well plates were treated with vehicle (culture medium) or 10-fold serial dilutions of EC0932 without or with 100-fold excess free folate. […] The cell viability was assessed by adding XTT (2,3-bis(2-methoxy-4-nitro-5-sulfo-phenyl)-2H-tetrazolium-5-carboxanilide) to the remaining medium for an additional 4 h following the manufacturer's instructions (Roche Applied Science, Indianapolis, Ind.). […]
(In general: Tetrazolium assays rely on reduction of a dye to a coloured formazan, in cell work by metabolically active cells.)

For series [2], the system named is LPS-stimulated TNF-α production in RAW264.7 cells. The experiment in a line: LPS-stimulated TNF-α production in RAW264.7 cells (ELISA). Type of series: cell-based, murine. As to conditions: 72 h incubations. As to the method:
as §1, §2
Background: In an ELISA, binding on a coated surface is turned into a signal by an enzyme label.

The nature of series [3]: Plasma pharmacokinetics after a single subcutaneous dose of EC0746 or aminopterin. The method, then:
Female Lewis rats with rounded tip jugular vein catheters (Harlan) were fed regular rodent diet and used in this study. The animals were given a single subcutaneous dose of EC0746 at 500 nmol/kg. Whole blood samples (300 μl) were collected from the animals at the following time points: 1 min, 10 min, 30 min, 1 h, 2 h, 3 h, 4 h, and 8 h after injection. The blood samples were placed into anti-coagulant tubes containing 1.7 mg/mL of K3-EDTA and 0.35 mg/mL of N-Maleoyl-beta-alanine (0.35 mg/mL). Plasma samples were obtained by centrifugation for 3 min at ˜2,000 g and stored at −80° C. The amount of EC0746 and its released base drugs (EC0470 & aminopterin) were determined by HPLC using the EC0746 injection solution as the standard (see FIG. 4). […] A similar method was used to determine the plasma pharmacokinetics of aminopterin (see FIG. 5).
Thus, the plasma concentrations of EC0746 and two primary metabolites, AMT and AMT hydrazide, were determined by LC/MS/MS after a single subcutaneous EC0746 administration. […] For comparison, the pharmacokinetics of subcutaneously dosed AMT (500 nmol/kg) was also examined (FIG. 15b).

Series [4] in a line: Pharmacokinetic analysis. From the text: Table printed on a drawing sheet, Fig. 15C
Title: Pharmacokinetic analysis
The patent's description of the figure: FIG. 15. Pharmacokinetics of EC0746 and potential metabolites aminopterin (AMT) and AMT hydrazide (EC0470) in Rats. Panel A. Plasma concentrations (nmol/L) of EC0746, AMT and AMT hydrazide following single subcutaneous EC0746 (500 nmol/kg) administration. Panel B. Plasma concentrations (nmol/L) of AMT following single subcutaneous AMT (500 nmol/kg) administration. c. Pharmacokinetic analysis of the results of (a.) and (b.).
First reader's note: Each column is an analyte detected in rat plasma after dosing the test compound named in row 1; values are means of n=3.

A short description of series [5]: Maximum tolerated dose in folate-deficient rats. Type of series: in vivo, rat. The method, then:
Healthy rats were administered a subcutaneous injection of the indicated dose of aminopterin or EC0746 biweekly for 2 weeks; control animals, no treatment, 100 nmole/kg aminopterin, 50 nmole/kg aminopterin, 500 nmole/kg EC0746, or 2000 nmole/kg EC0746. The animals were weighed daily. See FIG. 6, Panels A and B. A dose of […] of aminopterin in folate deficient rats is above the MTD; therefore, the projected MTD of EC0746 would be <0.5 μmol/kg based solely on ˜20% free drug release shown in the previous Example. However, the MTD of EC0746 is actually 2.0 μmol/kg, which is equivalent to 0.4 μmol/kg, or ˜8× higher than the MTD for free aminopterin. On a molar basis for total aminopterin, the MTD is 40× higher.
Since the toxicity of antifolates can be easily masked by rodent diets enriched with folate, healthy rats on a folate-deficient diet (Harlan) were used to determine the maximum-tolerated-dose levels (MTD) of EC0746, AMT and MTX. The animals were given biweekly injections of EC0746, AMT, and MTX for two weeks. The MTD dose was defined as the dose that had caused at least 13-14% weight loss combined with clinical signs of stress and at least one animal in the >MTD dose group needed to be euthanized. Standard hematologic and blood chemistry parameters were examined as needed along with histopathology. The MTDs of EC0746, MTX and AMT were determined to be 2000, 1000, and 50 nmol/kg, respectively. At above the MTD dose level, the main toxicities of EC0746 were similar to those of AMT and MTX, including manifested gastrointestinal distress (diarrhea), swollen muzzle, immunosuppression (bone marrow, thymus), low white-blood-cell count, low platelet count, and infections. […] Overall, EC0746 was approximately 40-fold less toxic than AMT and 2-fold less toxic than MTX on an equimolar basis in these folate-deficient animals; however, its toxicity profile at above MTD levels was not dissimilar from that of AMT and MTX.

In series [6] the target is folate receptors (FR-α) of KB cells (Homo sapiens, UniProt P15328). As to conditions: FR-α positive, 3H-folic acid.
The target of series [7] is folate receptors (FR-β) of CHO cells (Homo sapiens, UniProt P14207). As to conditions: 3H-folic acid.
Series [8] has as its target T1, DHFR (Mus musculus, UniProt P00375).
T1 construct: endogenous in cells; host or cells: RAW264.7
T1 sequence (P00375 1-187): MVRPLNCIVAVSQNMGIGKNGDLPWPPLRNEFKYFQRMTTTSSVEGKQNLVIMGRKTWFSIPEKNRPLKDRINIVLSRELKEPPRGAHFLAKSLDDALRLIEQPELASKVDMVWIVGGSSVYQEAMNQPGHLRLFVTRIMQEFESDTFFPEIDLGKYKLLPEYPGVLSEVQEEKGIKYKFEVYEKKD
The experiment in a line: DHFR activity in lysate of treated RAW264.7 cells. Format: cell-based, murine. To be noted: 10 μM, 2-h pulse, 22-h chase. The method, then:
RAW264.7 cells were treated with vehicle (medium), EC0746 (100 nM) without or with 100-fold excess free folate, aminopterin (AMT, 100 nM), methotrexate (MTX, 100 nM), or excess free folate alone (10 μM). […] At the end of incubation, the cells were lysed and the DHFR activity in cell lysates was measured using a commercial DHFR assay kit (Sigma-Aldrich, Saint Louis, Mo.).

Series [9] is described as follows: Serum protein binding. Format: in vitro ADME.
Where [10] appears, read: rat, in vivo, subcutaneous, folate-deficient rats, biweekly injections for two weeks.
The mark [11] stands for this setting: after single s.c. dose of EC0746 500 nmole/kg.

folate receptors (FR-α) of KB cells, sequence (P15328 25-234): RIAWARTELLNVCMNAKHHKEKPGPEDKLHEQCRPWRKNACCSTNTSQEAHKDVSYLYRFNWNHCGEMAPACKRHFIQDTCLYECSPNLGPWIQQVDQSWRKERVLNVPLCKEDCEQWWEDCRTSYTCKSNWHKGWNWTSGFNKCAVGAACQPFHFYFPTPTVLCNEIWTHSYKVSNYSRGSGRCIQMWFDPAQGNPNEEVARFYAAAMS
folate receptors (FR-β) of CHO cells, sequence (P14207 17-230, species assumed): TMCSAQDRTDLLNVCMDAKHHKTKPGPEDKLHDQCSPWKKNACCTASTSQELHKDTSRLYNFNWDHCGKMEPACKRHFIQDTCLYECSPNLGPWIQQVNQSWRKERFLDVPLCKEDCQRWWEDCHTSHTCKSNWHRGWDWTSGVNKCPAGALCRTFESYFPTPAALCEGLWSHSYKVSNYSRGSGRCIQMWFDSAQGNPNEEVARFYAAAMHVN

With `NNC(=O)CC[C@H](NC(=O)c1ccc(NCc2cnc3nc(N)nc(N)c3n2)cc1)C(=O)O` [EC0470, aminopterin gamma-hydrazide, reference compound], the “cell proliferation in the XTT assay, potency of potential EC0746 metabolites” value in series [1] (72 h incubations) is reported as “equally potent”. The “LPS-stimulated TNF-α production, potency of potential EC0746 metabolites” value in [2] was “equally potent”. Also, in series [3] (released from EC0746 after single s.c. dose 500 nmol/kg), the “Tmax of released base drug” value is ~60 min. In addition, in series [3] (released from EC0746 in EC0746-dosed rats), the “delay of plasma peak from the EC0746 Cmax” value stood at 30 min.
`Nc1nc(N)c2nc(CNc3ccc(C(=O)N[C@@H](CCC(=O)O)C(=O)O)cc3)cnc2n1` [AMT | AMT]: in series [4], the “AUC0-t |” value is on record as 61.3 nmol/min/mL, the “CL or CL_F |” value is reported as 1.7 mL/min, the “Cmax |” value turned out to be 601 nM and the “T1/2(elimination) | min” value is listed as 140 min. In addition, in series [4], the “Tmax | min” value was 30 min and the “Vz or Vz_F | mL” value stood at 328 mL.
A word on the MTD: it is the largest dose that counted as tolerated. The low end stands for a narrow tolerated range, the high end for a wide tolerated range. `Nc1nc(N)c2nc(CNc3ccc(C(=O)N[C@@H](CCC(=O)O)C(=O)O)cc3)cnc2n1` [aminopterin, reference compound] gave an MTD in [5] (folate-deficient rats, biweekly injections for two weeks) of 50 nmol/kg. In series [3] (female, Lewis, rat, in vivo, sc), the “elimination half-life of metabolite released from EC0746” value is ~117 min. The “delay of plasma peak from the EC0746 Cmax” value in [3] (rat, in vivo) was 30 min.
Turning to `CN(Cc1cnc2nc(N)nc(N)c2n1)c1ccc(C(=O)N[C@@H](CCC(=O)O)C(=O)O)cc1` [methotrexate, reference compound], the figures for the “relative folate receptor affinity (folic acid = 1)” value (from here on “relative folate receptor affinity”) in series [6] and in series [7] were 0.018 and 0.005, respectively. Besides, the MTD at 2 weeks in series [5] (setting [10]) was found to be 1 µmol/kg.
For the compound `Nc1nc2ncc(CNc3ccc(C(=O)N[C@@H](CCC(=O)O)C(=O)O)cc3)nc2c(=O)[nH]1` [folic acid], the “effect of folic acid alone on DHFR activity” value in series [8] was “did not have any impact”.
Broadly, the EC50 is the concentration that produces a half-maximal response. A word on the fraction unbound: it is the share of the substance not bound to proteins or other matrix. Broadly, the half-life is the time needed for the level to fall by half in the phase considered. High values mean slow loss, low ones fast loss. Broadly, the Cmax is the highest concentration seen after dosing. As for `N=c1[nH]c(N)nc2ncc(CNc3ccc(C(=O)N[C@@H](CCC(=O)NNC(=O)OCCSSC[C@H](NC(=O)[C@H](CCC(=O)NC[C@H](O)[C@@H](O)[C@H](O)[C@H](O)CO)NC(=O)[C@H](CCC(=O)O)NC(=O)[C@H](CCC(=O)NC[C@H](O)[C@@H](O)[C@H](O)[C@H](O)CO)NC(=O)[C@H](CCC(=O)O)NC(=O)[C@H](CCC(=O)NC[C@H](O)[C@@H](O)[C@H](O)[C@H](O)CO)NC(=O)CC[C@H](NC(=O)c4ccc(NCc5cnc6nc(N)[nH]c(=O)c6n5)cc4)C(=O)O)C(=O)O)C(=O)O)cc3)nc12` [EC0746], the “relative folate receptor affinity” value in series [6] amounted to 0.50. The “relative folate receptor affinity” value in series [7] was 0.270. Besides, in [5] (folate-deficient animals), the “fold less toxic than AMT on an equimolar basis” value is given as “approximately 40 fold” and the “fold less toxic than MTX on an equimolar basis” value is ~2 fold. In series [5] (rat, in vivo), the “MTD (free drug equivalent) fold higher than the MTD for free aminopterin” value was ~8 × and the “MTD fold higher than aminopterin on a molar basis for total aminopterin” value turned out to be 40 ×. In addition, in series [5] (rat, in vivo, sc, s.c. biweekly for 2 weeks), the MTD at 2 weeks came to 2 µmol/kg. This compound also had an MTD at 2 weeks in series [5] (setting [10]) of 2 µmol/kg. Moreover, the “gastrointestinal-associated toxicities at MTD dose” value in [5] (rats, at MTD) is “less gastrointestinal-associated toxicities than AMT and MTX”. The compound further had an EC50 in series [1] (2 hour treatment followed by 72 hours in treatment-free medium) of 0.33 nM. For the same compound, in series [9], the fraction unbound is ~0.54. In addition, in series [3] (setting [11]), the “Area Under Curve for free drug” value was 7.3 nmol·min/mL, the “Cmax for free drug (aminopterin+aminopterin hydrazide)” value is 34 nM, the “Cmax for free drug as share of the total” value is on record as 9.6% and the “time at which Cmax for free drug (aminopterin+aminopterin hydrazide) is reached” value is 60 min. The half-life in series [3] (female, Lewis, rat, in vivo, sc, 500 nmol/kg) was ~35 min. Further, the Cmax in series [3] (female, Lewis, rat, in vivo, sc, 500 nmole/kg) was determined as 321 nM. Moreover, in series [3] (rats, s.c.), the “bioavailability after subcutaneous administration” value is recorded as “bioavailable”. Also, the “Area Under Curve for EC0746” value in [3] (single s.c. dose of EC0746 500 nmole/kg) was 32.5 nmol·min/mL.
